Reference: patent publication US20060246071A1
Where a chain is given by its changes, count along the chain named.

B1: mAb 5.28.1 (antibody, V domains shown)
VH: EVQLVESGGIVVQPGGSLRLSCAASGFTFDDYTMHWVRQTPGKGLEWVSLISWDGGSTYYADSVKGRFTISRDNSKNSLYLQMNSLRTEDTALYYCAKDIDIAVAGTGFDHWGQGTLVTVSS
VL: EIVMTQSPATLSVSPGERATLSCRASQSVTSNLAWYQQKPGQAPRLLIYGALIRATGIPARFSGSGSGTEFTLTISSLQSEDFAVYYCQQYNNWPFTFGPGTKVDIKR
B2: mAb 6.3.1 (antibody, V domains shown)
VH: QVQLVQSGAEVKKPGASVKVSCKASGYTFTGYFMHWVPQAPGQGLEWMGWINPNSGGTNYAQNFQGRVTMTRDTSISTAYMELSRLRSDDTPVYYCARDPWQNWNSYFDYWGQGTLVTVSS
VL: DIQMTQSPSSLSASVGDRVTITCRASQSIRSYLNWYQQKPGKAPKVLIYAASSLQSGVPSRFSGSGSGTDFTLTISSLQPEDFATYYCQQSYSTLCSFGQGTKLEIKR
B3: mAb 5.2.1 (antibody, part only; not given: light chain, V domains shown, part only)
VH: QVQLVESGGGVVQPGRSLRLSCAASGFTFSSYGMHWVRQAPGKGLEWVAVIWFDGFNKYYADSVKGRFTISRDNSKNTLYLQMNSLRAEDTAVYHCARDRGYSGYDHYYGMDVWGQGTTVTVSSA
B4: mAb 5.39.1 (antibody, V domains shown)
VH: QVQLVQSGAEVTKPGASVKVSCKASGYTFTAYHMYWVRQAPGQGLEWMGWINPNSGGTNYAQKFQGRVTMTRDTSISTAYMELSRLRSDDSPVYYCARDQGIAAAGPFDYWGQGTLVTVSS
VL: EIVMTQSPATLSVSPGDRATLSCRASQSVSSNFAWYQQKPGQAPRLLIYGSSTRATGIPARFSGSGSGTEFTLTISSLQSEDFAVYYCQQYHYWWTFGQGTKVEFKR
B5: mAb 5.86.1 (antibody, V domains shown)
VH: B4 VH with T12K, A31G, M48L, S91T, P92A, A97V, G112C
VL: DIRMTQSPSSLSASVGDRVTITCRASQRISTYLNWYQQKPGKAPKFLIYAASSLQSGVPSRFSGSGSGTDFTLTISSLQPEDFATYYCQQSYTTPFTFGPGTKVDIKR
B6: mAb 5.62.1 (antibody, V domains shown)
VH: EVQLVESGGGLVQPGGSLRLSCAASGFTFSSYWMSWVRQAPGKGLEWVANIKQDGSEKYYVDSVKGRFTISRDNAKNSLYLQMNSLRAEDTAVYYCARDPGIAVAGPFDYWGQGTLVTVSS
VL: B4 VL with D17E, F33L, S51A, S52F, H92N, Y93H, E104G, F105I
B7: mAb 3.3.2 (antibody, V domains shown)
VH: B6 VH with A24V, P100Q
VL: B4 VL with D17E, S28T, N32D, F33L, S51A, T53I, Y87S, H92Y, Y93N, F105I
B8: mAb 5.88.3 (antibody, V domains shown)
VH: EVQMVESGGGLVQPGGSLRLSCAASGFTLRSYWMSWVRQAPGKGLEWVANIKEDGSEKYHVDSVKGRFTISRDNAENSLFLQMSSLRAEDTAVYYCARDMEASAGLFDYWGQGTLVTVSS
VL: B4 VL with D17E, T20I, V29I, F33L, S51A, H92N, F105I
B9: mAb 3.28.1 (antibody, part only; not given: light chain, V domains shown, part only)
VH: EVQLVESGGGLVQPGGSLRLSCAASGFTFSSSWMSWVRQAPGKGLEWVANIKQDGSDKYYVDSVKGRFTISRDNAKNSLYLQMNSLRAEDTAVYYCVRDKGSGWFDYWGQGTLVTVSSA

Assays:
[1] = biological target: Human Ang-1/2 BsmI chimera (human); test: ELISA
[2] = biological target: human Ang-2 H375Q (human) (UniProt O15123); test: ELISA
[3] = biological target: human Ang-2 V345M (human) (UniProt O15123); test: ELISA
[4] = biological target: human Ang-2 mutated at positions 365 and 367 (human) (UniProt O15123); test: ELISA
[5] = biological target: Mouse/Human Ang-2 StuI chimera (mouse; human) (UniProt O35608); test: ELISA
[6] = biological target: Mouse/Human chimeric Ang-2 with human StuI-TfiI fragment (residues 310-400) (mouse with human residues 310-400) (UniProt O35608); test: ELISA
[7] = biological target: human Ang-2443 (human) (UniProt O15123); test: ELISA
[8] = biological target: mouse Angiopoietin-2 (mouse) (UniProt O35608); test: ELISA
[9] = biological target: recombinant human Angiopoietin-2 (human) (UniProt O15123); test: Biacore, mAb captured
[10] = biological target: recombinant human Angiopoietin-2 (human) (UniProt O15123); test: inhibition of rhAng-2 binding to its receptor
[11] = biological target: recombinant human Angiopoietin-2 (human) (UniProt O15123); test: Biacore, mAb captured; kd held constant in fit
[12] = biological target: mouse Angiopoietin-2 (mouse) (UniProt O35608); test: ELISA titration, mouse Ang-2 supernatant coated

Sequence of human Ang-2 H375Q (human) (O15123 19-496, stated change not applied): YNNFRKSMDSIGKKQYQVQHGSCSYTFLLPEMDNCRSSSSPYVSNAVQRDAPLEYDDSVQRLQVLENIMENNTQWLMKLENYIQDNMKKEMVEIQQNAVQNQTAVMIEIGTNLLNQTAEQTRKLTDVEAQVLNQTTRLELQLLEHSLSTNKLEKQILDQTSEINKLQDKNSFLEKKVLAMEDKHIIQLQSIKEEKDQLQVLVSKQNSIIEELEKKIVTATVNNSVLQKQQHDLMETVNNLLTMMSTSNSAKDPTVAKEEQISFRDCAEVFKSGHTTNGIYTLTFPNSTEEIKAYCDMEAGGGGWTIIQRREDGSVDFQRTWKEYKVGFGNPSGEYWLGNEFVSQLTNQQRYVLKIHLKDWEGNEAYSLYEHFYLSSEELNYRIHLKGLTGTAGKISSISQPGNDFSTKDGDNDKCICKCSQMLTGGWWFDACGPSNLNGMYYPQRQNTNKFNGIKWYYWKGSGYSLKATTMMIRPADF
Sequence of recombinant human Angiopoietin-2 (human) (O15123 19-496 limits assumed): as the sequence (O15123 19-496, stated change not applied) above
Sequence of human Ang-2 V345M (human) (O15123 19-496, stated change not applied): as above
Sequence of human Ang-2 mutated at positions 365 and 367 (human) (O15123 19-496, change not shown): as the sequence (O15123 19-496, stated change not applied) above
Sequence of Mouse/Human Ang-2 StuI chimera (mouse; human) (O35608 other isoform, or with tags, fused parts or gaps mutant): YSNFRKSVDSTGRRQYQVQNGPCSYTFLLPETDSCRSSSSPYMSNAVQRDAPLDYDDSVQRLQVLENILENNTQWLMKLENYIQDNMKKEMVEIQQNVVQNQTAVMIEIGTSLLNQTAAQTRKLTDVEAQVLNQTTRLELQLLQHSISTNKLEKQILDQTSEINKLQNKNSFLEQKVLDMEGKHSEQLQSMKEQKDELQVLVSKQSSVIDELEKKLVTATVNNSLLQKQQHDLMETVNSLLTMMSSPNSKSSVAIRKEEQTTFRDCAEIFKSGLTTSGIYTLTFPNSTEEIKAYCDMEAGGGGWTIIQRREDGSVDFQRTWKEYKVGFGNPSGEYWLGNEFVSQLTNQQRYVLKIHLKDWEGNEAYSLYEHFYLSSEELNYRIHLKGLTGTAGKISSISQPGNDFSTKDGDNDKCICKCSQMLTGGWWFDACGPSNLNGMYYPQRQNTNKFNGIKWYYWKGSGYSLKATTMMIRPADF
Sequence of mouse Angiopoietin-2 (mouse) (O35608 19-496 S348N/G411A limits assumed): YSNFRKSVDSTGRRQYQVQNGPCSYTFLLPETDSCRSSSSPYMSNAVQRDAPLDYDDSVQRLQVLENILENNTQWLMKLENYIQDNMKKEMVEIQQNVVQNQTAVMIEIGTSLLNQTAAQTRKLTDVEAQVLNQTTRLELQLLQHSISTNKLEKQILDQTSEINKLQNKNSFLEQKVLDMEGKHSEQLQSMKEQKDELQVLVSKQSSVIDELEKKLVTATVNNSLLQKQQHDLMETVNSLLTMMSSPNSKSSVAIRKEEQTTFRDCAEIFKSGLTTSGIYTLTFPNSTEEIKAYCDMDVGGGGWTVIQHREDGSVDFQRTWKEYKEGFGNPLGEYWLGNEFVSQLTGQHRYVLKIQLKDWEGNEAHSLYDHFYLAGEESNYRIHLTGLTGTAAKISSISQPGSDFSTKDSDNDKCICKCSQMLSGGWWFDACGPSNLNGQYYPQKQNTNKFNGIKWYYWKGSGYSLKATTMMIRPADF
Sequence of human Ang-2443 (human) (O15123 other isoform, or with tags, fused parts or gaps): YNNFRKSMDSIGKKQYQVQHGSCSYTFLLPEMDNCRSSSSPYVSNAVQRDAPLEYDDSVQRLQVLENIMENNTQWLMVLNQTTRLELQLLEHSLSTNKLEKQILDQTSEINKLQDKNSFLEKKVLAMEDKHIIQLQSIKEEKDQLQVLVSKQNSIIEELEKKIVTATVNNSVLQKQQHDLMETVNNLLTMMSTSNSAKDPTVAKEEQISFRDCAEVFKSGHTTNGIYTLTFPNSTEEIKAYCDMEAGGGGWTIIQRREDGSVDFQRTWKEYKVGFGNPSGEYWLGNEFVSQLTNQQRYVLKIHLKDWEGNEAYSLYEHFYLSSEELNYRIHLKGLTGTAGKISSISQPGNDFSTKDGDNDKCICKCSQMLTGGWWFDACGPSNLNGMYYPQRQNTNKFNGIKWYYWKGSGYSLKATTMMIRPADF
Sequence of Mouse/Human chimeric Ang-2 with human StuI-TfiI fragment (residues 310-400) (mouse with human residues 310-400) (O35608 other isoform, or with tags, fused parts or gaps mutant limits assumed): as the sequence (O35608 other isoform, or with tags, fused parts or gaps mutant) above, with K386T, G393A, N403S, G410S, T424S, M440Q, R445K counted along it

Row | Binder | percent binding compared to human Ang-2 [1] [%] | percent binding compared to human Ang-2 [2] [%] | percent binding compared to human Ang-2 [3] [%] | percent binding compared to human Ang-2 [4] [%] | percent binding compared to human Ang-2 [5] [%] | percent binding compared to human Ang-2 [6] [%] | percent binding compared to human Ang-2 [7] [%] | percent of their immunoreactivity on human Ang-2 [8] [%] | Kd [9] [nM] | kon [9] [M⁻¹ s⁻¹] | OD650 in inibition assay [10] [OD650] | koff [11] [s⁻¹] | antibody concentration at saturation [12] [µg/mL]
1 | B1 | 100 | 100 | 100 | 100 | – | – | – | – | – | – | – | – | –
2 | B2 | 100 | 100 | 100 | 100 | – | – | – | – | – | – | – | – | –
3 | B3 | 100 | 100 | 100 | 100 | 100 | 100 | 100 | 100 | 0.062 | 160000 | 0.069 | 1e-05 | 10
4 | B4 | 100 | 100 | 100 | 100 | – | – | – | – | – | – | – | – | –
5 | B5 | 100 | 100 | 100 | 100 | – | – | – | – | – | – | – | – | –
6 | B6 | 100 | 100 | 100 | 100 | – | – | – | – | – | – | – | – | –
7 | B7 | 100 | 100 | 100 | 100 | – | – | – | – | – | – | – | – | –
8 | B8 | 100 | 100 | 100 | 100 | – | – | – | – | – | – | – | – | –
9 | B9 | 100 | 100 | 100 | 100 | 100 | 31 | 100 | – | 0.037 | 270000 | 0.0588 | 1e-05 | –
